{
  "source": "the NTF2 design screens of Basanta et al. (2020)",
  "data": [
    {"assay": "protease stability score; higher = more stable; yeast display proteolysis, trypsin and chymotrypsin;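 further: relative to predicted unfolded state with 0 unfolded-like and 1 meaning tenfold more protease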", "values": [
      {"sequence": "DDKDEHSYRVAEDVVEAWLTGDWRWLMDMFDPHVRMDIDIDGVDIHLHGRHELARYILEEHQKYKNITVHIEHIRVQGDFIEINTSVRIDGQRHDRRLIIRIINGKIEEHQIHVR", "protease stability score": 1.01},
      {"sequence": "DEDHKLLEKFYRIWVEMFKTGDEERWKHLADPDARSDINGVDFIGRDTVSKIMESFLRKMGFDHMEIRRFDFQGEKIKSDVVLDFNGRDVRTEIHIIVVDGRIKEERFRVT", "protease stability score": 0.192},
      {"sequence": "SEDDEYSELFVKTWFEILRTGDEEKIRRMLDPDARSTINGKDLHGRERIEEHLHELFLRLGLSNVKVHLHDYRFIGDKLHLHGKLTINGQEFDTKVDAWKFNGRWFMHQIHLR", "protease stability score": 1.39},
      {"sequence": "DEDKEEAMKFLRLWFHSVLTGDEDELTRLLDPNTRIVIDGRTFVGREEMVFVMREMRVHHFHIKDVHLVNGVAHIDTHSDIEFNGRRYRTDTEISVLKVDGKWILKSVKIR", "protease stability score": 2.42},
      {"sequence": "HEEEKHLKEMIERLYHYQLTGNWEELHRLADPHAKWHINGQDIHGMHIAVELILKEVRRIDHVDSDSKRIDMQGDKMRSNVHEIIEVGDKSIRRDSILILVIIDGRIREVSIIIL", "protease stability score": 1.1},
      {"sequence": "SEEEEQFKKVFEIVIRFIITGDEHSMLKNADPNARLEIGDKEVIGMENLLERLTRIIDQFKNVRIEFHVKDHDLQGDKLHLETEIVLKFDGRELRIILHIVWTKINGRWIITSLSER", "protease stability score": 1.17},
      {"sequence": "DDEDKRLETRARLWFEHFFTGDFEAMLWYLDPDTRLHINGREFHGMEHIVHHLEREILHLRVRIHLRRIKIFDGRLIIDIELEVHYGDKTHRTRAEIILIVVNGRIREIEVRES", "protease stability score": 1.5},
      {"sequence": "SEEEKLTREFAEMWRHTIETGDEEEMWRMADPNVRVDFDGKELHGRELFQEHFRKLGVDHFIVRRIHVQGEKLRIDGSHIYNGQHIHTELISQKVNGRWIIDQVKVH", "protease stability score": 1.36},
      {"sequence": "DEDTKEADDFTKIWAKSVETGDEDMLKHLADPHVRVEIGDKVFIGRHFWLKVLRHIRVESVHVEDYKVQGEKVEYHVRFEVDINGQKVESTRRMIVRKVNGRWILETVILE", "protease stability score": 1.49},
      {"sequence": "SEEEEESKYALKIERELLYTGDWHLLTRYADPDVRATINGQKVIGRELFSHIFLEELDKLGMRIHDIRETHWTLINGVAIHHMRINTRQGEKSYHTEMNLISLKVDGRWLIQSYELG", "protease stability score": 0.523},
      {"sequence": "DDLEEEAHKFLRIWLKNIITGDEDTLIELMDPRPRTIFNGVDLHGREDTSKRLSELRFNMRIDDIHVEVQGDKAIALSDVSYELIYNGRHVHLKSEIILTVRKFDGKWKAERLEIRIK", "protease stability score": 1.67},
      {"sequence": "DEDEEEAKEFLRIYIEALRTGDEDLWKEMADPNMRLIVGDKERHGRESYTHWERELGYRLEHIHIDHVTFQGDKVDVETTLRIHINGQTHDVEIHLIVTKIDGRWHMKEIIIK", "protease stability score": 1.08},
      {"sequence": "HEERDLAMHVIKRFIDSTVTGNEQDLTKLLDPHVRIEQGEYHDHGWKYAQLMIERFRNVRIELRIHFIRVQGDKVQVDIDWEVHIGDKVISSRLEMYIIKVNGVWLIRYVIFE", "protease stability score": 0.854},
      {"sequence": "DEDEEQLKEMWREFLEASRTGDEHRIKELADPNARLRQGDKRFHGREEFSRLIVEMRIRHIEIRRIRVVGDKIEITTELHVIYNGQHIEVDTHVIILKVNGRWSLTEMEER", "protease stability score": 0.905},
      {"sequence": "GDSEKDAERAIDIFLDTVRTGDERLIHELLDPTTILQVGDKQFHGREEADKWWHELLRKLGHTNIEMEVRDMKVQGDKVHLDTELRFNGRSTRIHVVIIKVNGRWLIEHIEIK", "protease stability score": 1.23},
      {"sequence": "DELHRDVTEAIKLILHAERTGNWRLMMDLMDPHVKLTIGDKEVHGMEAVFNELRTELEELGLDRFESHVRLRDFRIYDGRVDFHVELIFDFNGREIRHDTRFIVEKVDGRWFIKHIQYG", "protease stability score": 2.13},
      {"sequence": "SESEEHSKKLFDTWVHSELTGDERSLLHLMDPHVKFIIDGREIHGREKASEFLVKLREHLGAEIHDYRVRDMKIQGEKVIIHSELDVQVDGVRHHERLVLIMHKIDGQWSVESVKRV", "protease stability score": 1.08},
      {"sequence": "DEDEKLKQEWMELFLESLRTGDWRILRKLIDPNVRLEVGDKQVIGREKVLEILKKILDEIRNQDVKLHDYTEINGRIYLDVELDLQQGDKRITLKIHTVLEKYDGRWIIRTFRIE", "protease stability score": 1.23},
      {"sequence": "SEIERLLEEWMELVIHSWLTGNEELFTRMFDPNTRLEVEVGDKHDRHIGREEANKWMETLRREIRIEDIEIKEVRIFDGVAHNDGTLHRRVGDKKDYVRVRLILIIYNGKIHHVKIIVR", "protease stability score": 1.03},
      {"sequence": "DEEDKHLQEMVEKLVKNWLTGDWDKLRELLDPNTKSNIGEYTSIGWEKDAEAFEKLIHELGIKHMNFLIRRIHVVDGRAHSDVEIELEVDGRNTEVKTHLIVVIINGRVKSITVEYK", "protease stability score": 0.297},
      {"sequence": "HDLEETVRDMIHLLMTFVETGDEDSVHRLIDPHVRVEVGDKLTHGRQWVHLLIKRADVLEIRIEDMRIVGDKALIVSKYHIRIDGVFIVYNIDIYAEKIDGRWVTTEIKVD", "protease stability score": 1.71},
      {"sequence": "DDHSSARKFADEFREMMKTGDSTKADELFDPNVRVEVGDKRYHGREQAVDWIRHLVDRYDHIEIRIDHITVRGDRISIVFTVHYEKNGETTYDRYVMVAVDRNGRAQIKMLRKG", "protease stability score": 2.09},
      {"sequence": "NEHEETIEILFRDIVHVLRTGDWKLFSDLMDPHARYVIGDKTFHGRESWVREFDRLLEQIKGVRFDVRHVNVVGDKVHAFTDWEFNGVMFDTRLDLHIVDGRIKEMRLEIR", "protease stability score": 1.12},
      {"sequence": "SEWEHNLQRFIEELIEDARTGNEENIRENMDPDVRAEVDGQELHGREAQRFVRERIDVIKHNHLREIRFQGDFIHVRGELRGEVNGKEVHTDTHFVIWKFNGRWIIRHVLIR", "protease stability score": 1.03},
      {"sequence": "DEEDEELRRLLELLLRLYMTGDEHTLQTLADPHMKVRFHWDGREIRDHGRDALERHLKEWRVNDMDVNHFEAFNGRNMIDGILDGIINGVERRHKLELHFDLVNGRVKSVEIVLR", "protease stability score": 1.08},
      {"sequence": "DEQERIIRRLTELFTRAEKTGDWKNFLELADPHVRLKYGEFDHIGREEFYTLKEHVDKKLGIEFRDTDIKDLVVVGDKAVSHLTNDGEVNGVRHELSLNVVISKFNGRWELEQVEIK", "protease stability score": 0.897},
      {"sequence": "SEEEEELRIANELVKRSLDTGDEDLERELADPNTRVNYGDKILHGRHEVVRWLRRIDHIHVHWRDVRIYNGRIEMDGRLVLRVGDKSFSLETRIYMEKVDGQWVIKDHEIR", "protease stability score": 0.314},
      {"sequence": "DEEEELTKRWIDHLLRLWNTGDEHHFLKMADPHVRIEQGDKEHIGREEMYRWLQQFKNIRLHIDDIDIQGDFLNIDGYINFNGVHREAKVHIRVINGKLHSIIIRIK", "protease stability score": 1.3},
      {"sequence": "REEEEQLKHFIEHRLHNFLTGNEERLHHLADPNMRIDINGKELHGREAYIYEFNRLGWEIKHIDIEHLEVQGDKVDVDLRFKGHIDGKTRHIKSKLIVLKVDGKWFDKDYFII", "protease stability score": 1.13},
      {"sequence": "DEEKEHAKEMLELHLRLWLTGNEDKLHRLADPHVRMTIDGKEFIGREEMIKAIREHLKRLGVDHVRIHWTRLHVVDGQIDLHTHIRLHVDGRTIEIESEIISVVFNGVMKSIEWKFK", "protease stability score": 1.38},
      {"sequence": "DENTESVHWLIRVLIQSARTGDEDSMRHLFDPNTKLNINGQEIHGREVAEEWANRVDHIEHVELHRIRNIDGQLDVEGKMRGTVNGKRDENRIELIIIKVDGQWFLRSIRIE", "protease stability score": 1.57},
      {"sequence": "SEEERRYELFLNLLREIMETGDEHRRSNLMDPHVRFDWNGVEFHGREMLEFIIERLHKEARLESYEIHRVTLIGDKIELRVREKRRVGNKIIEWDVIIIVRKIDGKWTIEEVEIR", "protease stability score": 1.63},
      {"sequence": "DEEDRYMKELLEELLKDFETGNWDRLISLLDPHMRIQAENVTLHGRETTSRWLQEITSRVKGLRLHIESEEIQGDKAIIDGINNVNGREIRTILFSVKVDGRWLIKSIIIL", "protease stability score": 1.28},
      {"sequence": "TEFEQEVERMIRMWRHLYETGDEKTLSHLVDPNVRVIVDGKHIHGREQVVNEIRRAHIVDDFEIRLEDTKYFEGRAVFTGIIREHGHVDGRTVHKSTKVEIDVVKVDGQWLIHRINFH", "protease stability score": 1.54},
      {"sequence": "DETTELVHRLIELFLNSLHTGDEKTMVKLADPHARVEVRINGRKEEYHGMEHWSEHLIRRLEHLRIEIRIHDMQWFEGHAQVHTELIVRYDGKEMRTSVQVHLFIVNGRFKSSIVIIH", "protease stability score": 1.05},
      {"sequence": "SEDEEEAHEFLKRLDNAHRTGDEDFVYEQMDPDVRIDINGREWHGRELAREYLSIYGIKVMEVKRVNVYDGRINVDGHVEFNGVRNKTTIIMQKIDGRWRVKSITIK", "protease stability score": 1.41}
    ]}
  ]
}
